Legend:
Test in all cases: EMSA
[1] = target: NPAS4;ARNT2 (NPAS4 partner) (mouse;mouse, UniProt Q8BGD7;Q61324 1-329;1-481, |)
[2] = target: SIM1;ARNT2 (SIM1 partner) (;, UniProt P81133;Q9HBZ2 1-348;1-455, |)
[3] = target: HIF2a;ARNT (HIFa partner) (human;human, UniProt Q99814;P27540 1-353;1-503, |)
[4] = target: HIF1a;ARNT (HIFa partner) (human?;human, UniProt Q16665;P27540 1-375;1-503, |)
Sequence of HIF1a;ARNT (HIFa partner) (P27540 1-503, chain 2 of 2, other chains not shown): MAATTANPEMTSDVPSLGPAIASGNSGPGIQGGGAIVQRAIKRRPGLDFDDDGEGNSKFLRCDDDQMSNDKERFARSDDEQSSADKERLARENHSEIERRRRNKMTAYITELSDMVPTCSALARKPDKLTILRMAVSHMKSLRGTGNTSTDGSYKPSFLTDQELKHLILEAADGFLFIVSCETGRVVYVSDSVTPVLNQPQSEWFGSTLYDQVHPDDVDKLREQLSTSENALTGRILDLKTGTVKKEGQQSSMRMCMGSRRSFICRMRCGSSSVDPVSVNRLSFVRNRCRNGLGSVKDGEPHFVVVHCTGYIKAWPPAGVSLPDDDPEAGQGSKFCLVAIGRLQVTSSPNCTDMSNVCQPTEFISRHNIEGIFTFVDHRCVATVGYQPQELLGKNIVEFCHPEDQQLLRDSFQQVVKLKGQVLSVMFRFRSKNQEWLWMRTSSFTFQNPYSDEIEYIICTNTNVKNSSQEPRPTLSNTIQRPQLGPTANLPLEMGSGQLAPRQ

Sequence of HIF2a;ARNT (HIFa partner) (Q99814 1-353, chain 1 of 2): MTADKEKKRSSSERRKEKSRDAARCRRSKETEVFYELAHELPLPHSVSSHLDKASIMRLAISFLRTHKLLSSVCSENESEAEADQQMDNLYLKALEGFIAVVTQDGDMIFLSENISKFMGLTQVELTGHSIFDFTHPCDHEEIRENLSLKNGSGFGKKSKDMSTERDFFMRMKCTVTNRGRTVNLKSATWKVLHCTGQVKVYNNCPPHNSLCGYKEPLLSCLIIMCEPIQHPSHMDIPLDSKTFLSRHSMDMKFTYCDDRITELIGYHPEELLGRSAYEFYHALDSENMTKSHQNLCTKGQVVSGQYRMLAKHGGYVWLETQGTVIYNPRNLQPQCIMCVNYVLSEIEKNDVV
Sequence of HIF2a;ARNT (HIFa partner) (P27540 1-503, chain 2 of 2): as the sequence (P27540 1-503, chain 2 of 2, other chains not shown) above
Sequence of NPAS4;ARNT2 (NPAS4 partner) (Q8BGD7 1-329, chain 1 of 2): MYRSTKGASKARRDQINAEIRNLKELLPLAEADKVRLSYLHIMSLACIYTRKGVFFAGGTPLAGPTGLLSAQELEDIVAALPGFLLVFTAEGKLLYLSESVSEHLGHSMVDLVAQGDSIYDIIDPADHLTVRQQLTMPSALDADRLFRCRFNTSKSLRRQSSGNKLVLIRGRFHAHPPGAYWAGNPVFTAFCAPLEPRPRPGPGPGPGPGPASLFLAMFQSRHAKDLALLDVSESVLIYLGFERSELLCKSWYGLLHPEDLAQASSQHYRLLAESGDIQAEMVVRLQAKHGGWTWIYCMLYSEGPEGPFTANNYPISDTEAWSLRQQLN
Sequence of NPAS4;ARNT2 (NPAS4 partner) (Q61324 1-481, chain 2 of 2): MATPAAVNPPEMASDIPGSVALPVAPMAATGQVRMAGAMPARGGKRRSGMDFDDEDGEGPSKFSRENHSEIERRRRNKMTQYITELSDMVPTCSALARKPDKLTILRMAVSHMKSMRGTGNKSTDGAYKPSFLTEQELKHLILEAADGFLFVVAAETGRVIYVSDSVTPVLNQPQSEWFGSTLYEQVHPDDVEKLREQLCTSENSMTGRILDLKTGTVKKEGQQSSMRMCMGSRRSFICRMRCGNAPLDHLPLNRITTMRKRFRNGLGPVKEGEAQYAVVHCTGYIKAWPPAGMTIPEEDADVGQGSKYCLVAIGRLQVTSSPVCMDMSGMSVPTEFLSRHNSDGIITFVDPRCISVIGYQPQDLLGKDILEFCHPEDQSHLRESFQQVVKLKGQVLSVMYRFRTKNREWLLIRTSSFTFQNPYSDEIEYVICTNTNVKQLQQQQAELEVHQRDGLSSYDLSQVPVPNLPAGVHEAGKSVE
Sequence of SIM1;ARNT2 (SIM1 partner) (P81133 1-348, chain 1 of 2): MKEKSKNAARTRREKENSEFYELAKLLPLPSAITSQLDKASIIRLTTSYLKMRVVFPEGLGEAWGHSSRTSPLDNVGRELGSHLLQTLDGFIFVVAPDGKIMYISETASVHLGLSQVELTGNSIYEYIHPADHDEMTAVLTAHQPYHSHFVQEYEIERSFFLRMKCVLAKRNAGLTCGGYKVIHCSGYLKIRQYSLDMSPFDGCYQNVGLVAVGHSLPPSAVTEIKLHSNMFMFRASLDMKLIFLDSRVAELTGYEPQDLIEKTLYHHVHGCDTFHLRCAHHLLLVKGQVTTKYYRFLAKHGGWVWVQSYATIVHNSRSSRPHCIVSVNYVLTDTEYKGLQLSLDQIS
Sequence of SIM1;ARNT2 (SIM1 partner) (Q9HBZ2 1-455, chain 2 of 2): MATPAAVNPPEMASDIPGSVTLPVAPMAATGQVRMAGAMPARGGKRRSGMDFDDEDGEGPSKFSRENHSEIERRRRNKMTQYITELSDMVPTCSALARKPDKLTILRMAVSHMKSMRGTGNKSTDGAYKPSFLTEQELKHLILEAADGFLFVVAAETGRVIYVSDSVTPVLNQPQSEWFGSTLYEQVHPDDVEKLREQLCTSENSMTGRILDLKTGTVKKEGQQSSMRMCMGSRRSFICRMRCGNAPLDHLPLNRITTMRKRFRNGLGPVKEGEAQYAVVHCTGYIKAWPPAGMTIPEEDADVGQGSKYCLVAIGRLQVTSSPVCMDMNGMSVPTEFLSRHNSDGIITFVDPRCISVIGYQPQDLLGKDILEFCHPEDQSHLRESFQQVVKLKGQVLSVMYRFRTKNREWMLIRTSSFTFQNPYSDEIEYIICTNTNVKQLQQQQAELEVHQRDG

B1: NRE (dsDNA)
DNA 1: AAATGAGTCGTGACCAAAAATT
DNA 2: AATTTTTGGTCACGACTCATTT
binding result [1]: binds

B2: SRE (dsDNA)
DNA 1: AAAAGGTACGTGACCAAAAAGA
DNA 2: TCTTTTTGGTCACGTACCTTTT
binding result [2]: binds

B3: HRE (C/C) (dsDNA)
DNA 1: AGGCTGCGTACGTGCGGGTCGT
DNA 2: ACGACCCGCACGTACGCAGCCT
binding signal [3]: ~1 reference (HIF1a/ARNT about 2-fold higher)
binding signal [4]: ~2 fold higher affinity than HIF2a/ARNT
